Measured values as given in the domain aggregation screens of Martell et al. (2025).

Test: soluble fraction after stress (log2 fold change); higher = more stays soluble; pooled small domains, quantitative proteomics
Details: stress: pH 4
In short: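 Aggregation propensity here comes from the fold change in the soluble amount of each small protein domain after acid stress, measured in pooled custom libraries by high-throughput quantitative proteomics. The acid stress was pH 4. On the log2 scale, higher values mean more of the domain stayed soluble.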

Row | Sequence | soluble fraction (log2)
1 | HMGSREVPFSDFISKVESGSVLEVVLRGRQVEGLTDANERFQTQIPNYPALFEILERNQVRTRVEPT | -0.814
2 | HMTNEQLSKAKSWVQIAVYAAEKLYGAGNGDQKLVYAEEILRKHGIRLDTATLKAMIDAQIKEMEN | 0.131
3 | HMLTTADLMMVHANSNKAIDYIVTDDNTKLTVDEPVTAKWITTADSIYRAVAYYNKVGDGKAQIVSVGN | 0.0559
4 | HMVSSVAAISQMIDEKDRYTSEHSHRVAEYARLIGAHMGFAGEELDSLYRSALLHDIGKIAVPDAILNK | -0.417
5 | HMSPVKAPLPGVVLDIHVSVGQEVKASDTVVTLEAMKMENAIKAGVDGKVASISVGKGDSVLEGAVLLTI | 0.322
6 | HMFSGVQLGQAISEAIKRKNVSQKEVADHFGVKQPSVSGWIKNGRIDKKHLDKLIDYFSDVVTPSHFGIE | 0.241
7 | HMLMLTPGQIAQTLDVSTATVRRWSARYARHLSPNTPGKKRSYTVDDLAVLTRVRDLSATGTPLAQIDQAL | 0.151
8 | HMIYWGTMVDKIYEVLSLAGKPLSLMEIYQQVKVFFPNSTKSSIEASMRLDARHRFKYDVEGHVYSLVD | -0.368
9 | HMNIGVEQIEQMERGALITLWQELIDKPLPRHMSIVFLRQVLAFEVQSKQNGGLPRGFITLLNKQAD | -0.868
10 | HMSYKDIKEASDTGTYRDEENNIDVKWQKLFNGHNEYFDIEAYRDGERVEINNQQADRYIYLIKQEMD | -0.357
11 | HMESIPDELLEAFKQDPAFKQAFYALTAGRQRGYIIHFSQPKQSQTRIGRIEKYKEQIFNGIGLN | -0.125
12 | HMEGIAYDINTAPEHIDLKAEDMMATFNIGKTALWRWVKQKILPPPYEYRSQAAHWTIGQIRDWKTA | -0.417
13 | HMWKQISSEAELLPAVRSVIQANPGEAEKLRNGEMAPLEFLTGLVMKKTNGMAVPQIVKTLIKKELKI | 0.0805
14 | HMSDGHLIKVLEVLDGGEAFLGRTANGGTARFSLGQLADIRRGSVVFVSEDRWEVVPDSAWPEI | -1.29
15 | HMNDIQIILQEAVARLPKKQQLVFNMKYFDHLKYQEISEILGTSVGGLKASYFQAVKKIENYIINKH | 0.0158
16 | HMEKLIRIKRLIKQLNEYRDSYYNEARPVVSDAAYDKLFDELSELEKETGVVYANSPTQTVG | -0.457
17 | HMRQQQISAAIKTSVNGTVDYYVRRLPERDPRGDFLEVWDDLQKVIQAAHGIQVSHDELYEYFRRLK | -1.19
18 | HMNGVPDMSPVPEGARNSTLHAWAFGRLKNHPDNETGIREDLFRRGHASGLQDAELDQIWKSIKRTL | ≥ 0.43
19 | HMLPSMENWLGELSFWQTPWWERRDFSTFDNIAQSKEELDEFMSRDDNGAILERMQDPINTIEAE | -0.682
20 | HMSVPEAAERAIDVAQMRRALGELSPEQQRVLELAYFGGLTRQEIARATGTPLGTVHTRARLGLQNLRARL | -0.0378
21 | HMLPGERFKVKIAQAGKEKKQGIGYLNDGTMVVIENGIEKVGEEVEAVVIKVIQSSAGKIIFSEVAK | 0.0394
22 | HMIFDPTTLPEKQLLVYGIISSHPGLNAKQISEMLTLKKSSIETAIKGLRKKEIIEYEGTTRNGG | -0.17
23 | HMLKSGSAVAQARDVILEKGVPVHINEILDALGKGDTREAKASLTSSLAAYVRRGEIFTRPAPNTFGLVEL | -0.378
24 | HMDALKAVYQWVTRTMMKNQTGVMQTLPNRDLIELNTQITAQRLMQAGVDPTTLKNANQVENAVNIIESR | -0.193
25 | HMDFSYTVGDIDEPIDSRGNSVIMLRKLAWGSNAEKLEIRRWIIDIDSERANKGVTFLTEEGPHNLVRV | -0.332
26 | HMETLKEMDSKGAINASEVNVREGAGTSSSKMYSLSKGASVDVTGIKGDWYRVHTSKGTGYVLAKYVTLVS | ≥ 0.43
27 | HMDRSKREKEQQELMLKVQQIFDDNQQRFGAEKIRTVLAQNGVRVSVKRVSAIMQELNLRSIR | 0.169
28 | HMTGDIIKQERKKKNLTQIELAKKVGISRNALINYEAGTRIPPISVQLKLADVLGIDILDLK | -0.0221

Row | Sequence | soluble fraction (log2)
29 | HMPRPRIHSVVRGDTLYGISRQYGVAMSKLASLNGLKSPYRIMVGRSLRLPSAIEAERDRTAREVVQ | 0.208
30 | HMSSGKTGTITLQPKQTVYGITKQYKISEADLRKLNPQLDSNLKIGDKITLPLDNIQRYSDSSSNVAQT | 0.22
31 | HMKKSGFFSAGDRIQLTDNKGRQYSFNITEGKEFHTHQGFIKHDDLIGMPEGSVVSINSTTGVVQKFMAF | -0.584
32 | HMQEVILEKIQLTYLSADKLSKMAEQFSIPVKMYWVDENPMMLMVMGNESDIATFKKVLTQIDIPENKS | -1.04
33 | HMLDPYNVLGVPRDAGMDEIKKAYRKLSRTYHPDANIDNPNKAQAEEKFKQIQEAYQQIVKERTE | -0.152
34 | HMLNLNEAEKSIYVLIKKNESNNLNKVKEDSNLSNKAWDKGIKNLVKNNLVKVVKSNEGLFIQLV | 0.196
35 | HMYTLGEESDGTVRLLELYDIIKNKNEKIFVVDELDRSLHPNLTFNFVKKYLSIENKSQLIVSTH | -1.11
36 | HMSILYNAVKGTLVSSGALTADSWYKISSFGTASALPALKVGSIFKTPEGAGDAITLASGDSVYPLTLT | 0.021
37 | HMAGPGAEVVDRLIAVLTGERPATAADQVLLSILKGLGIGGVVLPSERTGLGWSGLYQRVKEITDMN | -1.21
38 | HMRIQTVDYNTFISMVEDGKVDAAEIQQQENRILFSDQDQKVYKTAMVPDDDLTQRLLDAGVSTNG | -0.837
39 | HMIILDASASRAIGNGTIEETKWDFGNGESSTNRGGPIVERQIYANQAAYILKLSMKTNDGQLFTKEIQLL | -0.0529
40 | HMGNKWKPIILYLLSNGSMRFGMLNALIPTISKKVLTNQLKELENDGLLLRQSFAEIPPRVEYSLTEKA | 0.165
41 | HMPASVEYIRLAAEQMTGQQVTIIEQPGNYAFILRIHLNDIYSLDLAALRARIDELKPAHLTYTVEQYD | -1.85
42 | HMLTAPMPGIVRQVNVDTGQKVRKGQPLMVLEAMKMEHQIIAPQAGKIEAIHYNEGDRVEMGSVLISIF | -0.538
43 | HMGDITALMPGKVIQIIVKEGQEIKVGDPLIVIESMKMENTISSEVNGTIKSINIQIDDNVQFDQVLFTV | -1.03
44 | HMHLTNIPKGFTPSFDTKQWIVEEFGERYNYDNELKIFINHYRASGTTKSDWQYAFRSWLLRAKKFT | -0.448
45 | HMDRGDVTREALIKAAIEIFGRDGFHAASTRAIAERAGANQALIGYHFRGKLGLYHATFEYIIGKI | -0.474
46 | HMPTSPKANFLKELPQEFTRKQAVTIGDKLNIKERTVDNYLAKLEQAGYLVKPKAGYYQKIKS | 0.22
47 | HMEWVVVPDVRRQLLPEAQRRVNKARLRLEVAGGWPAEPLLAMVVDQKPGPETRVPLNSIVVVVVRNLP | -0.0893
48 | HMEKDRDKRIRKRVLTALKRNDKKMTDKAFALLTSRIRDESILDQEVLKLIGYVGDRTTIDSKDINIVVAE | 0.0457
49 | HMQISDDGFILKIINEVVAENPKSISDYISGKEAAVGFLVGQIMKKTRGKANPKLVNEMLITELAKLKN | -0.393
50 | HMDRETEEYELIRAKLEWLYQKQTGTIRNQTAKILHHLEIAKEEGNYYLYLKIKEEAKQWLVQASMYLD | -0.725
51 | HMNRIKIYPTPGSKVLSIENINFSLIHDFKILDIFGREVKNFTVSSEKNTKMLVDTSKLSDGLYFIFFNTF | -0.61
52 | HMARKFQKDTGYLNKKERTWLLDFFPSLKKYLYTGAYIRSIIVVESNVTYTDKELPSNYTFTYKFA | 0.176
53 | HMGVMTGAEFVGNTVASVERNLIIDTLKHTMGNRTTAANILGISIRTLRNKLKQYQNEGFDIPE | 0.185
54 | HMDNPNVMAQVKSLLASKGLSEQEVKERLKAKGLNIDAMSDAEIAQNRSVIEQTIAELEAEKKKAG | 0.287
55 | HMEDPLGDLIGRIAAATGRPVQDIVAEVHRVVTDHFDGNLRVEAAAVILARKYGVAFEDKLSALQRSV | -0.559
